Series [1] concerns the target human glycine receptor β subunit, cryo-EM construct βem (human). In words: cryo-EM structure; α1emβem GlyR co-expressed and co-purified through the PA tag on βem; single-particle cryo-EM in 0.06% digitonin, 20 mM Tris pH 8.0, 200 mM NaCl; apo and with 2 mM glycine (states apo, gly-1 open, gly-2 expanded open, gly-3 desensitized).
Series [2] deals with the molecule itself. The series is described as above.

Chain of human glycine receptor β subunit, cryo-EM construct βem (human) (P48167 whole entry): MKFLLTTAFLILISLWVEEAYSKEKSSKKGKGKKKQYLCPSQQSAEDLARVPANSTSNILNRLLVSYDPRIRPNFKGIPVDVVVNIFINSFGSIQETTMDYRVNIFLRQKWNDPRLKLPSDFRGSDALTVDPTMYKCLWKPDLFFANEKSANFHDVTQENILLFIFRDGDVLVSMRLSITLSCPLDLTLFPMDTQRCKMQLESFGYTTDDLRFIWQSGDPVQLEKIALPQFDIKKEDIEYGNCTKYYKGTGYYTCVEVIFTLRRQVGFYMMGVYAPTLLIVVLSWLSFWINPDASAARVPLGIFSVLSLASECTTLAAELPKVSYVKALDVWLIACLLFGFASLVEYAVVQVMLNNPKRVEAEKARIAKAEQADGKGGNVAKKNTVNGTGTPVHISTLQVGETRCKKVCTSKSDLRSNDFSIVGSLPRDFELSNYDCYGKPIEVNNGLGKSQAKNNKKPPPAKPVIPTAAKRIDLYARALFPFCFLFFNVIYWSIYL

B1: human glycine receptor α1 subunit, cryo-EM construct α1em (receptor)
chain: ARSAPKPMSPSDFLDKLMGRTSGYDARIRPNFKGPPVNVSCNIFINSFGSIAETTMDYRVNIFLRQQWNDPRLAYNEYPDDSLDLDPSMLDSIWKPDLFFANEKGAHFHEITTDNKLLRISRNGNVLYSIRITLTLACPMDLKNFPMDVQTCIMQLESFGYTMNDLIFEWQEQGAVQVADGLTLPQFILKEEKDLRYCTKHYNTGKFTCIEARFHLERQMGYYLIQMYIPSLLIVILSWISFWINMDAAPARVGLGITTVLTMTTQSSGSRASLPKVSYVKAIDIWMAVCLLFVFSALLEYAAVNFVSRQHKELLGSSGEEMRKLFIQRAKKIDKISRIGFPMAFLIFNMFYWIIYKIVRREDVHNQ
notes: human glycine receptor α1, NCBI NP_001139512.1, the part before the M3/M4 loop (residues up to L315); linker that replaces the M3/M4 loop residues R316-P381; human glycine receptor α1, NCBI NP_001139512.1, the part after the replaced M3/M4 loop (E382 to the C-terminal Q429); Four copies stand in each α1emβem pentamer; also called GlyR α1; α subunit; source: HEK293S GnTI- cells, BacMam baculovirus …
On to B1, for which, in series [1], the stoichiometry N (α1 subunits per β subunit) was 4. Moreover, in series [2], the binding result was “binds”.

The values are drawn from PMC10567788, “Asymmetric gating of a human hetero-pentameric glycine receptor” (Nature Communications, 2023).
